Laboratory results reported in publication PMC2719906 (Nature, 2008).

T1: WASP GBD (GTPase binding domain, residues 242-310) (UniProt P42768 242-310)
T1 sequence (looked up): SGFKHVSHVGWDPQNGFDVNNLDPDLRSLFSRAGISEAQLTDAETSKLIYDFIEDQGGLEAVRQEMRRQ

B1: N-WASPC (N-WASP residues 193-501) (domain or fragment)
chain: KRLTKADIGTPSNFQHIGHVGWDPNTGFDLNNLDPELKNLFDMCGISEAQLKDRETSKVIYDFIEKTGGVEAVKNELRRQAPPPPPPSRGGPPPPPPPPHSSGPPPPPARGRGAPPPPPSRAPTAAPPPPPPSRPGVVVPPPPPNRMYPPPPPALPSSAPSGPPPPPPLSMAGSTAPPPPPPPPPPPGPPPPPGLPSDGDHQVPASSGNKAALLDQIREGAQLKKVEQNSRPVSCSGRDALLDQIRQGIQLKSVSDGQESTPPTPAPTSGIVGALMEVMQKRSKAIHSSDEDEDDDDEEDFQDDDEWED

Tests used:
[1] = molecular target: B1; experiment: ITC
[2] = molecular target: T1, WASP GBD (GTPase binding domain, …); experiment: NMR titration
[3] = molecular target: EspFU R47 (full 47-residue fifth repeat of EspFU) (enterohaemorrhagic E. coli (EHEC, …, UniProt P0DJ88 268-314)); experiment: ITC

For LPDVAQRLMQHLAEHGIQ [EspFU R18 peptide], the Kd [1] was 4000 nM.

LPDVAQRLMQHLAEHGIQPARNMAEHIPPAPNW (domain or fragment) [EspFU R33 (N-terminal 33-residue fragment of the fifth repeat)] was tested, and the “stoichiometry N” value [2] was 1 EspFU:GBD and the Kd [1] was 35 nM.

B1 was tested, and the Kd [3] was 35 nM.
